This is an account of results in FireProtDB (doi:10.1016/0003-9861(92)90047-z).

As usually defined, the Tm is the temperature at which the thermal transition is half complete.

The labels stand for the following.
B1: Tryptophan synthase alpha chain, P0A877 (parent)
chain: MERYESLFAQLKERKEGAFVPFVTLGDPGIEQSLKIIDTLIEAGADALELGIPFSDPLADGPTIQNATLRAFAAGVTPAQCFEMLALIRQKHPTIPIGLLMYANLVFNKGIDEFYAQCEKVGVDSVLVADVPVEESAPFRQAALRHNVAPIFICPPNADDDLLRQIASYGRGYTYLLSRAGVTGAENRAALPLNHLVAKLKEYNAAPPLQGFGISAPDQVKAAIDAGAAGAISGSAIVKIIEQHINEPEKMLAALKVFVQPMKAATRS

In this data set the parent is B1. The conditions noted are these: Escherichia coli (strain K12); pH 7.2; Thermal; DSC; Sodium phosphate 1 mM; reversible: yes; structure 1WQ5; whole UniProt chain shown.

As for MERYESLFAQLKERKEGAFVPFVTLGDPGIEQSLKIIDTLIEAGADALELGIPFSDPLADGPTIQNATLRAFAAGVTPAQCFEMLALIRQKHPTIPIGLLMYANLVFNKGIDEFCAQCEKVGVDSVLVADVPVEESAPFRQAALRHNVAPIFICPPNADDDLLRQIASYGRGYTYLLSRAGVTGAENRAALPLNHLVAKLKEYNAAPPLQGFGISAPDQVKAAIDAGAAGAISGSAIVKIIEQHINEPEKMLAALKVFVQPMKAATRS [Y115C], the Tm was found to be 57.2 °C and the “change of melting temperature, mutant - wild type (higher = more stable)” value is -2.3 °C.
On the same counts, the results for MERYESLFAQLKERKEGAFVPFVTLGDPGIEQSLKIIDTLIEAGADALELGIPFSDPLADGPTIQNATLRAFAAGVTPAQCFEMLALIRQKHPTIPIGLLMYANLVFNKGIDELYAQCEKVGVDSVLVADVPVEESAPFRQAALRHNVAPIFICPPNADDDLLRQIASYGRGYTYLLSRAGVTGAENRAALPLNHLVAKLKEYNAAPPLQGFGISAPDQVKAAIDAGAAGAISGSAIVKIIEQHINEPEKMLAALKVFVQPMKAATRS [F114L] are 56.2 °C and -3.3 °C.
On the same counts, the results for MERYESLFAQLKERKEGAFVPFVTLGDPGIEQSLKIIDTLIEAGADALELGIPFSDPLADGPTIQNATLRAFAAGVTPAQCFEMLALIRQKHPTIPIGLLMYANLVFNKGIGEFYAQCEKVGVDSVLVADVPVEESAPFRQAALRHNVAPIFICPPNADDDLLRQIASYGRGYTYLLSRAGVTGAENRAALPLNHLVAKLKEYNAAPPLQGFGISAPDQVKAAIDAGAAGAISGSAIVKIIEQHINEPEKMLAALKVFVQPMKAATRS [D112G] are 54.4 °C and -5.1 °C.
On the same counts, the results for MERYESLFAQLKERKEGAFVPFVTLGDPGIEQSLKIIDTLIEAGADALELGIPFSDPLADGPTIQNATLRAFAAGVTPAQCFEMLALIRQKHPTIPIGLLMYANLVFNKGINEFYAQCEKVGVDSVLVADVPVEESAPFRQAALRHNVAPIFICPPNADDDLLRQIASYGRGYTYLLSRAGVTGAENRAALPLNHLVAKLKEYNAAPPLQGFGISAPDQVKAAIDAGAAGAISGSAIVKIIEQHINEPEKMLAALKVFVQPMKAATRS [D112N] are 56.4 °C and -3.1 °C.
For MERYESLFAQLKERKEGAFVPFVTLGDPGIEQSLKIIDTLIEAGADALELGIPFSDPLADGPTIQNATLRAFAAGVTPAQCFEMLALIRQKHPTIPIGLLMHANLVFNKGIDEFYAQCEKVGVDSVLVADVPVEESAPFRQAALRHNVAPIFICPPNADDDLLRQIASYGRGYTYLLSRAGVTGAENRAALPLNHLVAKLKEYNAAPPLQGFGISAPDQVKAAIDAGAAGAISGSAIVKIIEQHINEPEKMLAALKVFVQPMKAATRS [Y102H], the Tm came to 60.3 °C and the “change of melting temperature, mutant - wild type (higher = more stable)” value is 0.8 °C.
